{
  "source": "the supplement of paper PMC11316812",
  "key": {"[1]": {"system": "MCF7", "test": "percentage of EdU-negative (G0-arrested) nuclei per well, 72 h; higher = more G0 arrest", "details": "reference: sequence is the full UniProt precursor, the tested protein was the secreted form or ectodomain"}, "[2]": {"system": "hTERT-HMEC", "test": "percentage of EdU-negative (G0-arrested) nuclei per well, 72 h; higher = more G0 arrest", "details": "reference: sequence is the full UniProt precursor, the tested protein was the secreted form or ectodomain"}, "[3]": {"details": "protein concentration 0.02225 µM"}, "[4]": {"details": "protein concentration 0.2225 µM"}, "[5]": {"details": "protein concentration 0.0225 µM"}, "[6]": {"details": "protein concentration 0.03125 µM"}, "[7]": {"details": "protein concentration 0.3125 µM"}, "[8]": {"details": "protein concentration 0.0322857 µM"}, "[9]": {"details": "protein concentration 0.322857 µM"}, "[10]": {"details": "protein concentration 0.0357143 µM"}, "[11]": {"details": "protein concentration 0.357143 µM"}, "[12]": {"details": "protein concentration 0.0085 µM"}},
  "note": "± gives the standard deviation of the averaged measurements.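 Note: secreted proteins added to cultured cells, EdU pulse at the end, nuclei found by Hoechst imaging, EdU status from nuclear versus surrounding ring intensity ratio, PBS as neutral control.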",
  "data": [
    {"sequence": "MGLGPVFLLLAGIFPFAPPGAAAEPHSLRYNLTVLSWDGSVQSGFLTEVHLDGQPFLRCDRQKCRAKPQGQWAEDVLGNKTWDRETRDLTGNGKDLRMTLAHIKDQKEGLHSLQEIRVCEIHEDNSTRSSQHFYYDGELFLSQNLETKEWTMPQSSRAQTLAMNVRNFLKEDAMKTKTHYHAMHADCLQELRRYLKSGVVLRRTVPPMVNVTRSEASEGNITVTCRASGFYPWNITLSWRQDGVSLSHDTQQWGDVLPDGNGTYQTWVATRICQGEEQRFTCYMEHSGNHSTHPVPSGKVLVLQSHWQTFHVSAVAAAAIFVIIIFYVRCCKKKTSAAEGPELVSLQVLDQHPVGTSDHRDATQLGFQPLMSDLGSTGSTEGA", "values": [
      {"measurement": "percentage of EdU-negative", "setting": "[1]; [3]", "value": "24.7 ± 0.99", "unit": "%"},
      {"measurement": "percentage of EdU-negative", "setting": "[1]; [4]", "value": "26.3 ± 1.6", "unit": "%"},
      {"measurement": "percentage of EdU-negative", "setting": "[2]; [3]", "value": "5.41 ± 0.075", "unit": "%"},
      {"measurement": "percentage of EdU-negative", "setting": "[2]; [4]", "value": "6.78 ± 1.8", "unit": "%"}
    ]},
    {"sequence": "MSALWLLLGLLALMDLSESSNWGCYGNIQSLDTPGASCGIGRRHGLNYCGVRASERLAEIDMPYLLKYQPMMQTIGQKYCMDPAVIAGVLSRKSPGDKILVNMGDRTSMVQDPGSQAPTSWISESQVSQTTEVLTTRIKEIQRRFPTWTPDQYLRGGLCAYSGGAGYVRSSQDLSCDFCNDVLARAKYLKRHGF [Q8N1E2]", "values": [
      {"measurement": "percentage of EdU-negative", "setting": "[1]; [5]", "value": "25.6 ± 2", "unit": "%"},
      {"measurement": "percentage of EdU-negative", "setting": "[1]; protein concentration 0.225 µM", "value": "25.2 ± 0.58", "unit": "%"},
      {"measurement": "percentage of EdU-negative", "setting": "[2]; [5]", "value": "4.76 ± 1.4", "unit": "%"},
      {"measurement": "percentage of EdU-negative", "setting": "[2]; protein concentration 0.225 µM", "value": "6.97 ± 0.29", "unit": "%"}
    ]},
    {"sequence": "MRLLQLLFRASPATLLLVLCLQLGANKAQDNTRKIIIKNFDIPKSVRPNDEVTAVLAVQTELKECMVVKTYLISSIPLQGAFNYKYTACLCDDNPKTFYWDFYTNRTVQIAAVVDVIRELGICPDDAAVIPIKNNRFYTIEILKVE", "values": [
      {"measurement": "percentage of EdU-negative", "setting": "[1]; [5]", "value": "25.1 ± 2.6", "unit": "%"},
      {"measurement": "percentage of EdU-negative", "setting": "[1]; protein concentration 0.225 µM", "value": "25.5 ± 0.54", "unit": "%"},
      {"measurement": "percentage of EdU-negative", "setting": "[2]; [5]", "value": "4.779 ± 0.024", "unit": "%"},
      {"measurement": "percentage of EdU-negative", "setting": "[2]; protein concentration 0.225 µM", "value": "5.95 ± 1.6", "unit": "%"}
    ]},
    {"sequence": "MTRALCSALRQALLLLAAAAELSPGLKCVCLLCDSSNFTCQTEGACWASVMLTNGKEQVIKSCVSLPELNAQVFCHSSNNVTKTECCFTDFCNNITLHLPTASPNAPKLGPMELAIIITVPVCLLSIAAMLTVWACQGRQCSYRKKKRPNVEEPLSECNLVNAGKTLKDLIYDVTASGSGSGLPLLVQRTIARTIVLQEIVGKGRFGEVWHGRWCGEDVAVKIFSSRDERSWFREAEIYQTVMLRHENILGFIAADNKDNGTWTQLWLVSEYHEQGSLYDYLNRNIVTVAGMIKLALSIASGLAHLHMEIVGTQGKPAIAHRDIKSKNILVKKCETCAIADLGLAVKHDSILNTIDIPQNPKVGTKRYMAPEMLDDTMNVNIFESFKRADIYSVGLVYWEIARRCSVGGIVEEYQLPYYDMVPSDPSIEEMRKVVCDQKFRPSIPNQWQSCEALRVMGRIMRECWYANGAARLTALRIKKTISQLCVKEDCKA [Q8NER5]", "values": [
      {"measurement": "percentage of EdU-negative", "setting": "[1]; [6]", "value": "24.6 ± 0.8", "unit": "%"},
      {"measurement": "percentage of EdU-negative", "setting": "[1]; [7]", "value": "26 ± 0.41", "unit": "%"},
      {"measurement": "percentage of EdU-negative", "setting": "[2]; [6]", "value": "4.41 ± 0.6", "unit": "%"},
      {"measurement": "percentage of EdU-negative", "setting": "[2]; [7]", "value": "4.47 ± 0.65", "unit": "%"}
    ]},
    {"sequence": "MSSFSTTTVSFLLLLAFQLLGQTRANPMYNAVSNADLMDFKNLLDHLEEKMPLEDEVVPPQVLSEPNEEAGAALSPLPEVPPWTGEVSPAQRDGGALGRGPWDSSDRSALLKSKLRALLTAPRSLRRSSCFGGRMDRIGAQSGLGCNSFRY", "values": [
      {"measurement": "percentage of EdU-negative", "setting": "[1]; [5]", "value": "25 ± 2.1", "unit": "%"},
      {"measurement": "percentage of EdU-negative", "setting": "[1]; protein concentration 0.225 µM", "value": "25.7 ± 1.1", "unit": "%"},
      {"measurement": "percentage of EdU-negative", "setting": "[2]; [5]", "value": "4.9 ± 0.49", "unit": "%"},
      {"measurement": "percentage of EdU-negative", "setting": "[2]; protein concentration 0.225 µM", "value": "6.92 ± 0.56", "unit": "%"}
    ]},
    {"sequence": "MASYLYGVLFAVGLCAPIYCVSPANAPSAYPRPSSTKSTPASQVYSLNTDFAFRLYRRLVLETPSQNIFFSPVSVSTSLAMLSLGAHSVTKTQILQGLGFNLTHTPESAIHQGFQHLVHSLTVPSKDLTLKMGSALFVKKELQLQANFLGNVKRLYEAEVFSTDFSNPSIAQARINSHVKKKTQGKVVDIIQGLDLLTAMVLVNHIFFKAKWEKPFHPEYTRKNFPFLVGEQVTVHVPMMHQKEQFAFGVDTELNCFVLQMDYKGDAVAFFVLPSKGKMRQLEQALSARTLRKWSHSLQKRWIEVFIPRFSISASYNLETILPKMGIQNVFDKNADFSGIAKRDSLQVSKATHKAVLDVSEEGTEATAATTTKFIVRSKDGPSYFTVSFNRTFLMMITNKATDGILFLGKVENPTKS [Q86WD7]", "values": [
      {"measurement": "percentage of EdU-negative", "setting": "[1]; [8]", "value": "27.1 ± 1.6", "unit": "%"},
      {"measurement": "percentage of EdU-negative", "setting": "[1]; [9]", "value": "25.7 ± 0.86", "unit": "%"},
      {"measurement": "percentage of EdU-negative", "setting": "[2]; [8]", "value": "5.19 ± 0.14", "unit": "%"},
      {"measurement": "percentage of EdU-negative", "setting": "[2]; [9]", "value": "6.1 ± 0.46", "unit": "%"}
    ]},
    {"sequence": "MGPLSAPPCTEHIKWKGLLVTASLLNFWNLPTTAQVTIEAQPPKVSEGKDVLLLVHNLPQNLTGYIWYKGQIRDLYHYITSYVVDGQIIIYGPAYSGRETAYSNASLLIQNVTREDAGSYTLHIIKRGDGTRGVTGYFTFTLYLETPKPSISSSNLNPREAMETVILTCDPETPDTSYQWWMNGQSLPMTHRFQLSETNRTLFLFGVTKYTAGPYECEIRNSGSASRSDPVTLNLLHGPDLPRIHPSYTNYRSGDNLYLSCFANSNPPAQYSWTINGKFQQSGQNLFIPQITTKHSGLYVCSVRNSATGEESSTSLTVKVSASTRIGLLPLLNPT", "values": [
      {"measurement": "percentage of EdU-negative", "setting": "[1]; [10]", "value": "24.9 ± 2.1", "unit": "%"},
      {"measurement": "percentage of EdU-negative", "setting": "[1]; [11]", "value": "25.4 ± 0.54", "unit": "%"},
      {"measurement": "percentage of EdU-negative", "setting": "[2]; [10]", "value": "4.65 ± 0.56", "unit": "%"},
      {"measurement": "percentage of EdU-negative", "setting": "[2]; [11]", "value": "5.32 ± 1.1", "unit": "%"}
    ]},
    {"sequence": "MRALEGPGLSLLCLVLALPALLPVPAVRGVAETPTYPWRDAETGERLVCAQCPPGTFVQRPCRRDSPTTCGPCPPRHYTQFWNYLERCRYCNVLCGEREEEARACHATHNRACRCRTGFFAHAGFCLEHASCPPGAGVIAPGTPSQNTQCQPCPPGTFSASSSSSEQCQPHRNCTALGLALNVPGSSSHDTLCTSCTGFPLSTRVPGAEECERAVIDFVAFQDISIKRLQRLLQALEAPEGWGPTPRAGRAALQLKLRRRLTELLGAQDGALLVRLLQALRVARMPGLERSVRERFLPVH", "values": [
      {"measurement": "percentage of EdU-negative", "setting": "[1]; [12]", "value": "22.9 ± 1.3", "unit": "%"},
      {"measurement": "percentage of EdU-negative", "setting": "[1]; protein concentration 0.085 µM", "value": "27.9 ± 2.1", "unit": "%"},
      {"measurement": "percentage of EdU-negative", "setting": "[2]; [12]", "value": "4.68 ± 0.12", "unit": "%"},
      {"measurement": "percentage of EdU-negative", "setting": "[2]; protein concentration 0.085 µM", "value": "8.46 ± 1.8", "unit": "%"}
    ]}
  ]
}
